Biological target: portions of the MUC16 extracellular domain (ECD) (UniProt Q8NEV4)
Assay: surface plasmon resonance with portions of the MUC16 ECD

- Kd: 0.116 nM
B1: A117C thio hu anti-MUC16 3A5 humanized variant (antibody, human IgG1, kappa, V domains shown)
VH: EVQLVESGGGLVQPGGSLRLSCAASGYSITNDYAWNWVRQAPGKGLEWVGYISYSGYTTYNPSLKSRFTISRDTSKNTLYLQMNSLRAEDTAVYYCARWTSGLDYWGQGTLVTVSS
VL: DIQMTQSPSSLSASVGDRVTITCKASDLIHNWLAWYQQKPGKAPKLLIYGATSLETGVPSRFSGSGSGTDFTLTISSLQPEDFATYYCQQYWTTPFTFGQGTKVEIKR
notes: Full-length IgG expressed in CHO cells; Kabat A114C, Eu A118C) change; also called thio hu anti-MUC16 HC A117C 3A5; A117C thio hu 3A5

From patent publication USRE47194 (Genentech, dated 2019)
